The supplement of paper PMC9876800

Test system: peptide library, one residue held at a place counted from the S/T acceptor
Experiment: relative phosphorylation of the sub-library (ratio to the mean residue at this position); higher = residue favoured
Settings: human
Procedure, shortened: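 Human or orthologue kinase constructs, purified and recombinant, were incubated under kinase-specific conditions in 384-well plates with biotinylated degenerate peptide sub-libraries. Each sub-library fixed one residue at one position around a central Ser/Thr. Incubations lasted 90 min with peptides at 50 μM and 50 μM ATP spiked with γ-32P-ATP, after which spots on streptavidin membranes were phosphorimaged and quantified by densitometry. Relative sub-library phosphorylation is a ratio to the mean residue at that position.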

Chain of MAP4K4, construct: aa1-328 (O95819 1-328, looked up): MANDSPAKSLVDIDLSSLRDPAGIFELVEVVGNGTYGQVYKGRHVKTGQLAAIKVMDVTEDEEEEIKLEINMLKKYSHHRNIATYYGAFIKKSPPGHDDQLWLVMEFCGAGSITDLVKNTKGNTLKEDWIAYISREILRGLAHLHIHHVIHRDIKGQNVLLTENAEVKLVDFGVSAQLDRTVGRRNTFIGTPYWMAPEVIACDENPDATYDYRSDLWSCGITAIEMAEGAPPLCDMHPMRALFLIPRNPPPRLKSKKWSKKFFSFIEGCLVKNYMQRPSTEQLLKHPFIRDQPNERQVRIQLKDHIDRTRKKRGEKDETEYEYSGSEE
Chain of OXSR1, construct: Full length (O95747 whole entry, looked up): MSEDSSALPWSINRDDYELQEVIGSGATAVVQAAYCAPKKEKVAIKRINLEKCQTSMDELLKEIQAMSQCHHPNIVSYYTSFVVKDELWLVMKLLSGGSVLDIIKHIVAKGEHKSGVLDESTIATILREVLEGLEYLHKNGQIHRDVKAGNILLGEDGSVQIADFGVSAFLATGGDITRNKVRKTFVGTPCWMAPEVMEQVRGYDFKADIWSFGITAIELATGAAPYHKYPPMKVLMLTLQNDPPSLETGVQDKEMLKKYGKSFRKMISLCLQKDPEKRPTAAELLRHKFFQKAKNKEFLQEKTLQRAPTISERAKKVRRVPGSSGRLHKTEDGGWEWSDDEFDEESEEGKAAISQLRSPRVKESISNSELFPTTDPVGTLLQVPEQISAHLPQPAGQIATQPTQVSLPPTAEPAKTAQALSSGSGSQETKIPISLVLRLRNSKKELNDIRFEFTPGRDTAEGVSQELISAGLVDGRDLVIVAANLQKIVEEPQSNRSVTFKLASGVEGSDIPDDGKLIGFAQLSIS
Chain of STK3, construct: Full length (Q13188 whole entry, looked up): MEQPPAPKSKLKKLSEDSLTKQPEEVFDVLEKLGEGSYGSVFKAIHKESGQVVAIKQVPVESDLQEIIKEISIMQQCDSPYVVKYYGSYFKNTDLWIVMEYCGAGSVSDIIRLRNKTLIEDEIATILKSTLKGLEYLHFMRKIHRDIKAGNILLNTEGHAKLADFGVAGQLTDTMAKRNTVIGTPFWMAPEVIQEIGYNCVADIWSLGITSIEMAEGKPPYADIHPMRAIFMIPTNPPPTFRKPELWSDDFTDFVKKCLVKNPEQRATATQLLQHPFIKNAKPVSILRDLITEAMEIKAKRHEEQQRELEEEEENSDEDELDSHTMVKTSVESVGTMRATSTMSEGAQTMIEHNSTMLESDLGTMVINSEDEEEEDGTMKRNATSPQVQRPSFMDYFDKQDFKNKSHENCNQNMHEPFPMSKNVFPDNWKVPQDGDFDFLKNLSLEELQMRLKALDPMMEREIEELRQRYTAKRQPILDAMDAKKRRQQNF

OXSR1, construct: Full length (from UniProt O95747)
relative phosphorylation
Settings | at +1 | at +2 | at +3 | at +4 | at -1 | at -2 | at -3 | at -4 | at -5
A fixed | 0.587 | 0.646 | 1.07 | 1 | 0.862 | 0.695 | 0.845 | 1.05 | 1.23
D fixed | 0.346 | 0.325 | 0.493 | 0.683 | 1.83 | 1.34 | 1.26 | 1.9 | 1.83
E fixed | 0.382 | 0.249 | 0.487 | 0.666 | 1.19 | 1.31 | 1.27 | 1.8 | 1.52
F fixed | 1.08 | 0.495 | 0.574 | 0.702 | 0.643 | 0.693 | 0.48 | 0.722 | 0.76
G fixed | 0.509 | 1.09 | 1.42 | 1.37 | 0.801 | 1.31 | 1.17 | 1.41 | 1.4
H fixed | 1.21 | 3.55 | 1.17 | 1.07 | 1.67 | 1.43 | 1.57 | 1 | 0.976
I fixed | 1.69 | 0.541 | 0.443 | 0.596 | 0.447 | 0.333 | 0.36 | 0.329 | 0.386
K fixed | 0.838 | 1.25 | 2.23 | 1.93 | 0.975 | 0.584 | 0.783 | 0.964 | 1.06
L fixed | 1.14 | 0.459 | 0.531 | 0.634 | 0.931 | 0.432 | 0.384 | 0.416 | 0.519
M fixed | 1.36 | 0.76 | 0.613 | 0.78 | 0.968 | 0.531 | 0.51 | 0.633 | 0.581
N fixed | 0.689 | 1.18 | 1.1 | 0.947 | 1.64 | 1.69 | 2.04 | 1.14 | 0.96
P fixed | 0.351 | 0.677 | 1.47 | 1.29 | 0.494 | 0.673 | 1.3 | 1.22 | 1.4
Q fixed | 1.06 | 1 | 0.907 | 1.06 | 0.987 | 1.61 | 1.18 | 1.09 | 0.757
R fixed | 1.04 | 2.08 | 2.47 | 1.7 | 1.33 | 0.677 | 0.846 | 0.994 | 1.12
V fixed | 1.53 | 0.678 | 0.556 | 0.63 | 0.446 | 0.378 | 0.552 | 0.535 | 0.549
W fixed | 1.99 | 0.782 | 0.72 | 1.09 | 0.706 | 0.84 | 0.663 | 0.864 | 0.852
Y fixed | 1.2 | 1.23 | 0.739 | 0.856 | 1.09 | 2.46 | 1.79 | 0.937 | 1.11
pThr fixed | 0.911 | 0.562 | 0.699 | 0.507 | 0.94 | 1.06 | 1.43 | 1.49 | 1.46
pTyr fixed | 0.769 | 0.428 | 0.728 | 0.82 | 2.18 | 1.52 | 1.41 | 1.53 | 1.82

STK3, construct: Full length (from UniProt Q13188)
relative phosphorylation
Settings | at +1 | at +2 | at +3 | at +4 | at -1 | at -2 | at -3 | at -4 | at -5
A fixed | 0.661 | 0.581 | 0.858 | 1.04 | 0.779 | 0.875 | 0.933 | 0.913 | 1.03
D fixed | 0.346 | 0.503 | 0.732 | 0.903 | 2.13 | 1.3 | 1.5 | 1.32 | 1.46
E fixed | 0.48 | 0.55 | 0.651 | 0.554 | 1.02 | 1.19 | 1.39 | 1.42 | 1.2
F fixed | 0.902 | 0.508 | 0.855 | 0.762 | 0.651 | 1.64 | 0.919 | 1.07 | 0.976
G fixed | 0.728 | 0.737 | 1.14 | 1.45 | 1.3 | 0.916 | 1.15 | 1.01 | 0.989
H fixed | 0.58 | 1.48 | 1.11 | 1.13 | 1.13 | 1.18 | 0.957 | 1.07 | 1.15
I fixed | 1.92 | 0.532 | 0.872 | 0.747 | 0.346 | 0.457 | 0.461 | 0.501 | 0.601
K fixed | 0.419 | 2.81 | 1.41 | 1.26 | 1.17 | 0.444 | 0.517 | 0.821 | 0.784
L fixed | 2.37 | 0.687 | 1.05 | 0.951 | 0.917 | 0.511 | 0.601 | 0.598 | 0.821
M fixed | 2.76 | 0.687 | 0.886 | 1.02 | 0.823 | 0.877 | 0.727 | 0.789 | 0.817
N fixed | 0.589 | 1.64 | 1.12 | 1.09 | 1.74 | 1.32 | 1.21 | 1.17 | 1.1
P fixed | 0.26 | 0.733 | 1.1 | 1.18 | 0.706 | 0.555 | 1.08 | 0.926 | 1.23
Q fixed | 0.761 | 1.28 | 1.06 | 1.24 | 1.26 | 0.953 | 1.15 | 1.32 | 1.06
R fixed | 0.479 | 2.35 | 1.45 | 0.852 | 0.783 | 0.472 | 0.602 | 0.881 | 0.704
V fixed | 1.09 | 0.747 | 0.827 | 0.871 | 0.511 | 0.514 | 0.64 | 0.809 | 0.89
W fixed | 1.87 | 0.549 | 0.925 | 1.11 | 0.819 | 1.63 | 1.78 | 1.12 | 1.15
Y fixed | 0.792 | 0.626 | 0.953 | 0.841 | 0.909 | 2.17 | 1.4 | 1.26 | 1.03
pThr fixed | 1.04 | 1.05 | 0.9 | 0.916 | 0.849 | 1.04 | 1.18 | 1.08 | 1.06
pTyr fixed | 0.632 | 0.544 | 0.771 | 0.75 | 0.599 | 1.56 | 1.26 | 1.2 | 1.24

MAP4K4, construct: aa1-328 (from UniProt O95819)
relative phosphorylation
Settings | at +1 | at +2 | at +3 | at +4 | at -1 | at -2 | at -3 | at -4 | at -5
A fixed | 0.704 | 0.925 | 0.833 | 1.06 | 1.11 | 1.09 | 1.06 | 1.03 | 1.31
D fixed | 0.182 | 0.658 | 0.379 | 0.734 | 0.805 | 0.726 | 0.861 | 0.82 | 0.983
E fixed | 0.181 | 0.553 | 0.325 | 0.487 | 0.423 | 0.544 | 0.672 | 0.913 | 0.714
F fixed | 0.947 | 0.616 | 0.674 | 0.705 | 0.809 | 1.41 | 0.966 | 0.943 | 0.879
G fixed | 0.648 | 1 | 0.812 | 1.2 | 1.65 | 1.07 | 1.23 | 1.08 | 1.27
H fixed | 0.927 | 1.13 | 1.03 | 1.11 | 1.35 | 1.21 | 1.3 | 1.14 | 1.11
I fixed | 1.72 | 0.567 | 0.575 | 0.689 | 0.42 | 0.804 | 0.7 | 0.744 | 0.807
K fixed | 0.896 | 2.26 | 2.37 | 2.03 | 1.27 | 0.792 | 1.16 | 1.1 | 1.18
L fixed | 2.32 | 0.728 | 0.734 | 0.785 | 0.941 | 0.776 | 0.809 | 0.808 | 0.752
M fixed | 2.15 | 0.827 | 0.681 | 0.766 | 1.15 | 0.907 | 0.923 | 1.04 | 0.841
N fixed | 0.688 | 0.905 | 0.823 | 0.956 | 1.17 | 0.952 | 1.09 | 0.929 | 0.843
P fixed | 0.32 | 1.02 | 0.976 | 1.18 | 0.742 | 0.749 | 0.982 | 1 | 1.22
Q fixed | 0.645 | 1.06 | 0.957 | 1.06 | 0.976 | 0.821 | 0.979 | 0.989 | 0.936
R fixed | 0.851 | 2.49 | 3.56 | 1.97 | 1.41 | 0.934 | 1.18 | 1.16 | 1.13
V fixed | 1.2 | 0.694 | 0.653 | 0.775 | 0.587 | 0.852 | 0.583 | 0.894 | 0.909
W fixed | 1.6 | 0.756 | 0.871 | 0.823 | 0.892 | 1.42 | 1.27 | 1.28 | 1.09
Y fixed | 1.02 | 0.806 | 0.746 | 0.669 | 1.28 | 1.94 | 1.22 | 1.13 | 1.04
pThr fixed | 0.465 | 0.462 | 0.606 | 0.607 | 0.373 | 0.608 | 0.839 | 0.961 | 0.998
pTyr fixed | 0.306 | 0.401 | 0.444 | 0.434 | 0.717 | 0.685 | 1.01 | 0.868 | 0.837

MAP3K3, construct: Full length (from UniProt Q99759)
relative phosphorylation
Settings | at +1 | at +2 | at +3 | at +4 | at -1 | at -2 | at -3 | at -4 | at -5
A fixed | 0.713 | 0.684 | 0.711 | 0.953 | 0.837 | 0.924 | 0.739 | 0.897 | 0.956
D fixed | 0.304 | 0.643 | 0.767 | 0.758 | 1.28 | 1.65 | 1.39 | 1.38 | 1.12
E fixed | 0.322 | 0.539 | 0.758 | 1.04 | 1.01 | 0.958 | 1.37 | 1.23 | 1.01
F fixed | 1.32 | 0.884 | 1.38 | 0.916 | 0.902 | 1.09 | 0.946 | 0.955 | 1.11
G fixed | 0.603 | 0.488 | 0.904 | 0.904 | 1.25 | 0.969 | 1.33 | 0.913 | 0.916
H fixed | 0.779 | 2.55 | 1.03 | 0.859 | 1.24 | 0.984 | 0.918 | 0.982 | 1.13
I fixed | 1.77 | 0.745 | 1.01 | 0.961 | 0.747 | 1.02 | 0.876 | 0.892 | 0.869
K fixed | 0.516 | 1.42 | 1.19 | 1.7 | 1.18 | 0.591 | 0.998 | 1.1 | 1.15
L fixed | 1.49 | 0.808 | 1.2 | 0.821 | 0.922 | 0.794 | 0.851 | 0.93 | 0.895
M fixed | 1.74 | 1.05 | 1.11 | 0.953 | 0.943 | 1.01 | 0.902 | 1.05 | 0.944
N fixed | 0.48 | 1.03 | 0.992 | 0.962 | 1.3 | 0.932 | 1.04 | 1.01 | 1.03
P fixed | 0.34 | 0.255 | 0.361 | 0.982 | 0.482 | 0.728 | 0.723 | 0.736 | 0.744
Q fixed | 0.686 | 0.898 | 0.75 | 1.07 | 0.834 | 0.838 | 0.77 | 0.741 | 0.842
R fixed | 0.796 | 1.67 | 1.15 | 1.35 | 1.54 | 0.915 | 1.28 | 1.09 | 1.05
V fixed | 1.43 | 0.841 | 0.861 | 0.734 | 0.684 | 1.13 | 0.971 | 0.916 | 0.925
W fixed | 2.59 | 0.994 | 1.57 | 1.02 | 0.849 | 1.15 | 0.981 | 1.07 | 1.21
Y fixed | 1.11 | 1.5 | 1.26 | 1.02 | 1.01 | 1.31 | 0.912 | 1.1 | 1.08
pThr fixed | 1.12 | 1.39 | 0.824 | 1.37 | 1.23 | 2.17 | 2.37 | 1.82 | 2.48
pTyr fixed | 0.626 | 0.691 | 1.06 | 0.783 | 1.56 | 2.52 | 1.7 | 1.02 | 1.63
